{
  "source": "patent US12605469B2",
  "about": "“Tumor specific antibody conjugates and uses therefor” (The University of North Carolina at Charlotte, priority 2019, dated 2026)",
  "molecules": {"B1": {"name": "Humanized HC3 + LC2: heavy chain H6247, light chain L6246 (antibody)", "heavy": "EVQLVQSGAEVKKPGASVKVSCKASGYTFTNYWMHWVRQAPGQGLEWMGYINPSSGYTQYNQKFQGWVTMTADTSISTAYMELSRLRSDDTAVYYCSTYYGDYLFPYWGQGTLVTVSSASTKGPSVFPLAPCSRSTSESTAALGCLVKDYFPEPVTVSWNSGALTSGVHTFPAVLQSSGLYSLSSVVTVPSSNFGTQTYTCNVDHKPSNTKVDKTVERKCCVECPPCPAPPVAGPSVFLFPPKPKDTLMISRTPEVTCVVVDVSHEDPEVQFNWYVDGVEVHNAKTKPREEQFNSTFRVVSVLTVVHQDWLNGKEYKCKVSNKGLPAPIEKTISKTKGQPREPQVYTLPPSREEMTKNQVSLTCLVKGFYPSDIAVEWESNGQPENNYKTTPPMLDSDGSFFLYSKLTVDKSRWQQGNVFSCSVMHEALHNHYTQKSLSLSPG", "light": "DVVMTQSPLSLPVTLGQPASISCRSSQDIVYGNGNTYLEWYQQRPGQSPRLLIYKVSNRFSGVPDRFSGSGSGTDFTLKISRVEAEDVGVYYCFQGSHVPYTFGQGTKLEIKRTVAAPSVFIFPPSDEQLKSGTASVVCLLNNFYPREAKVQWKVDNALQSGNSQESVTEQDSKDSTYSLSSTLTLSKADYEKHKVYACEVTHQGLSSPVTKSFNRGEC"}, "B2": {"name": "Humanized HC3 + LC3: heavy chain H6247, light chain L6247 (antibody)", "heavy": "B1 heavy", "light": "B1 light with V2I, M4L, R66S, K79T, V90I, Q105E"}, "B3": {"name": "TAB-004-CpG ODN conjugate (conjugate)", "VH": "EVQLQQSGGERATPGASVKMSCKTSGYTFTNYWMHWVKQRPGQGLEWIGYINPSSGYTQYNQKFKDKATLTADKSSSTAYIQLSSLTSEDSAVYYCSTYYGDYLFPYWGQGTLVTVSA", "VL": "DVLMTQTPLSLPVSLGDQASISCRSSQDIVYGNGNTYLEWYLQKPGQSPKLLIYKVSNRFSGVPDRFSGSGSGTDFTLKISRVEAEDLGVYYCFQGSHVPYTFGGGTKLEIKR"}, "B4": {"name": "TAB-004-MSN (conjugate)", "VH": "B3 VH", "VL": "B3 VL"}},
  "key": {"KCM lysate": {"target": "T1, KCM lysate (Homo sapiens, UniProt P15941)", "T1 construct": "expressed in transfected cells; host or cells: KCM, a primary mouse pancreatic adenocarcinoma line from P48-Cre x LSL-Kras G12D x human MUC1.Tg mice; whole-cell lysate at 10 ug/mL", "T1 sequence (P15941 24-1255)": "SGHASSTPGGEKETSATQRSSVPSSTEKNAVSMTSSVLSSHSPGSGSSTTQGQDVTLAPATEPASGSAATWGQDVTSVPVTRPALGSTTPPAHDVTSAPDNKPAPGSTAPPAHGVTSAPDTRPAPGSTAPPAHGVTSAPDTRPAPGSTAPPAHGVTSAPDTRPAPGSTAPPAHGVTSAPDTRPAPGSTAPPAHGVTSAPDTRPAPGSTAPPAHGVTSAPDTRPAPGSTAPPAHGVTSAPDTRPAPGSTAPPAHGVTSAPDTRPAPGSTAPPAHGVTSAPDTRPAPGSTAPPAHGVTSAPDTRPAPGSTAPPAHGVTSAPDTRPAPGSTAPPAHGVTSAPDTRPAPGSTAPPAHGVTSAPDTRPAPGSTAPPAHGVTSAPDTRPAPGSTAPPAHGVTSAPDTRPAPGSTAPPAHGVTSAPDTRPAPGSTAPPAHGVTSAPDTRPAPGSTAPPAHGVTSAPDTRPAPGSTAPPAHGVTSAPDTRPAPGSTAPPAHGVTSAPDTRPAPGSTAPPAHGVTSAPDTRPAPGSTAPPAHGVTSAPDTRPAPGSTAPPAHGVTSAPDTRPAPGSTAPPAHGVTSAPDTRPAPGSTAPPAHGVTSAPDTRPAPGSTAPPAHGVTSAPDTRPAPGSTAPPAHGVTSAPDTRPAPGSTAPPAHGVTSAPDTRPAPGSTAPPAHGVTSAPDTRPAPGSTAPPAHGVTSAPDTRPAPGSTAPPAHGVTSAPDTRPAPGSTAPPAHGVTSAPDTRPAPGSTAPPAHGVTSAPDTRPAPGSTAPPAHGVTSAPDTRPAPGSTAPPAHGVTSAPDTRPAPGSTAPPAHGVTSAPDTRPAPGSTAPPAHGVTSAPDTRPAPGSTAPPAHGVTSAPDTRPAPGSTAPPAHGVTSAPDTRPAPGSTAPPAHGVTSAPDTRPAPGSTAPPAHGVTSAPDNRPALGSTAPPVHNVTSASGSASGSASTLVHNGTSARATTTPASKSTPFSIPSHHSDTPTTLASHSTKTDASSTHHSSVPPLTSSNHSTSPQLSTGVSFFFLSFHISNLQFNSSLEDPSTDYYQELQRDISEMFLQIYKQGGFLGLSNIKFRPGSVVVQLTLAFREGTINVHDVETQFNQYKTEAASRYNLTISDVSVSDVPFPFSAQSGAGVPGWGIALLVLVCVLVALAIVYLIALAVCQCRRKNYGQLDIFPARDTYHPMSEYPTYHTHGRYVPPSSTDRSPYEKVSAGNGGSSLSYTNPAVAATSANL", "assay": "sandwich ELISA of humanized TAB004 antibodies on KCM lysate", "type": "binding, mouse", "details": "compared with chimeric parental antibody", "experimental": "Antigen binding (KCM lysate) to the 9 humanized antibody combinations and the chimeric parental antibody were evaluated by sandwich ELISA. For this, ELISA plates were coated with hybridoma antibody (1 μg/mL) overnight at 4° C. in the dark and then blocked with 2% BSA for 2 hours at room temperature to reduce non-specific binding. KCM lysate (10 μg/mL) was then added and incubated for 2 hours at room temperature. Antibodies were diluted in 5-fold increments for a total of seven data points and were added to the ELISA wells for 2 hours at room temperature. The plate was washed with PBS three times, and then incubated with HRP conjugated goat anti-human IgG antibody for 2 hours. The plate was washed three times with PBS. TMB, the HRP substrate, was added to each well for color development for 5 minutes at room temperature. Equal amount of 1N HC1 stop solution was added to each well to terminate the reaction."}, "KCM tumor cells": {"test_system": "KCM tumor cells", "assay": "NK cell specific lysis of tumor cells", "type": "cell-based, mouse", "details": "various E:T ratios", "from_the_text": "FIGS. 4A and 4B are graphs showing that an exemplary antibody of the presently disclosed subject matter (TAB-004) enhanced the cytotoxicity of Natural Killer (NK) cells to kill target tumor cells.\n(§1) The TAB-004 antibody alone or conjugated to CpG ODN bound to a tumor cell line (referred to herein as the “KCM” cell line; see FIG. 3) generated from the triple transgenic PDA.MUC1.Tg mice."}, "KCM pancreatic cell line": {"test_system": "KCM pancreatic cell line", "assay": "binding to KCM pancreatic cell line", "type": "cell-based, mouse", "from_the_text": "FIG. 3 is a schematic (upper left panel) showing an approach for creating a triple transgenic mouse line that expresses the Cre recombinase throughout the pancreas, a mutated K-ras oncogene polypeptide, and a human MUC1 polypeptide. This mouse develops pancreatic adenocarcinoma, cells of which were used to generate the primary tumor cell line KCM (lower panel). The KCM cell line was used to test the binding of an exemplary antibody of the presently disclosed subject matter (denoted in the Figure as “TAB” and in the instant disclosure as “TAB-004”) either alone or conjugated to CpG oligodeoxynucleotides (CpG ODN).\nas §1"}, "KCM tumor": {"test_system": "KCM tumor", "assay": "in vivo anti-tumor activity against established KCM tumor", "design": "species or system mouse", "experimental": "FIG. 5A is a line graph showing the measured tumor volumes (in mm measured by digital calipers) in mice treated with phosphate-buffered saline (PBS) alone (negative control; filled squares), CpG ODN alone (X's), the unconjugated TAB-004 antibody (open circles), or the TAB-004-CpG ODN conjugate (filled circles). FIG. 5B is a bar graph showing the changes in tumor volumes in mice at 19 and 27 days after the final treatment was administered. […] PBS alone (negative control; white bars); CpG ODN alone (hatched bars); unconjugated TAB-004 antibody (black bars); TAB-004-CpG ODN conjugate (cross-hatched bars). […] The treatment groups and the schedule and dose were as illustrated in FIGS. 5A and 5B. Briefly, 3×10^6 KCM tumor cells were administered subcutaneously into the flank region of mice (n=10 mice) at day 0. At days 4, 10, and 16, 50 μg of a TAB-004-CpG ODN conjugate were administered intratumorally (without adjuvant) to each mouse. The same amounts of antibody were administered to an antibody alone group (unconjugated TAB-004) for comparison. Mice were sacrificed at day 20 and tumors recovered."}, "[1]": {"assay": "physical properties of MSN materials (DLS, zeta-potential, TGA, TEM)", "type": "physicochemical", "from_the_text": "The MSN conjugates were characterized by dynamic light scattering (DLS), thermogravimetric analysis (TGA), and transmission electron microscopy (TEM). […] DLS results indicated slight aggregation. The surface charges were as expected during the different synthesis steps, with the final TAB-004-MSN neutral surface charge indicating successful functionalization of MSN. The PEG linker was quantified by TGA to be about 6-7% by weight."}},
  "note": "Substitutions are numbered along the chain they refer to.",
  "data": [
    {"molecule": "B1", "values": [
      {"measurement": "binding by ELISA", "setting": "KCM lysate", "value": "retained binding similar to the chimeric parental antibody"}
    ]},
    {"molecule": "B2", "values": [
      {"measurement": "binding by ELISA", "setting": "KCM lysate", "value": "retained binding similar to the chimeric parental antibody"}
    ]},
    {"molecule": "B3", "values": [
      {"measurement": "specific lysis of tumor cells by NK cells", "setting": "KCM tumor cells", "value": "further enhanced specific lysis of tumor cells"},
      {"measurement": "binding to KCM cell line", "setting": "KCM pancreatic cell line", "value": "bound to the KCM pancreatic cell line with equal affinity"},
      {"measurement": "growth of established tumor", "setting": "KCM tumor; 50 μg intratumorally at days 4, 10, and 16", "value": "completely stopped the growth of an established tumor leading to complete eradication"},
      {"measurement": "tumor volumes at 19 and 27 days post-treatment", "setting": "KCM tumor; compared to control mice", "value": "had not increased"},
      {"measurement": "tumor regrowth after cessation of treatment", "setting": "KCM tumor; mouse, in vivo", "value": "did not grow back the tumors"}
    ]},
    {"molecule": "B4", "values": [
      {"measurement": "PDI", "setting": "[1]", "value": 0.35},
      {"measurement": "Size (nm)", "setting": "[1]; determined in 1 mM PBS, pH 7.4", "value": 342.0, "unit": "nm"},
      {"measurement": "Zeta-potential (mV)", "setting": "[1]; determined in 1 mM PBS, pH 7.4", "value": "−5.6 ± 0.8", "unit": "mV"}
    ]}
  ]
}
